Source: patent publication US20150086580A1

Columns and labels:
[1] = biological target: H77c core-E1E2 HCVpp (HCV E1E2 with HVR1) (Hepatitis C virus genotype 1a, isolate H77C); assay: binding affinity to HCVpp (method not given)
[2] = biological target: H77c core-E1ΔHVR1E2 HCVpp (HCV E1E2 without HVR1) (Hepatitis C virus genotype 1a, isolate H77C) (UniProt P27958); assay: binding affinity to HCVpp (method not given)

Row | Substance | Kd [1] [nM] | Kd [2] [nM]
1 | CBH-7 (antibody) | 0.24 | 0.08
2 | CBH-5 (antibody) | 4 | 0.56
3 | CBH-4D (antibody) | 0.84 | 0.48
4 | CBH-4G (antibody) | 5.43 | 5.29
5 | CBH-23 (antibody) | 0.17 | 0.09
